Measured values: US12679878B2, “CRF2 receptor agonists and their use in therapy” (SANOFI, priority 2020, dated 2026)
Starred links: 1 amine or outer side, 2 acyl side, 3 side chain; linkers in the order of their positions; H or OH if unused. Non-standard residues stand in square brackets, D forms with d. Groups on a side chain read outwards from the residue. No end group written: not given here. *: point of attachment. C20 diacid = O=C(O)CCCCCCCCCCCCCCCCCCC(=O)*; C18 diacid = O=C(O)CCCCCCCCCCCCCCCCC(=O)*; γGlu = O=C(O)[C@H](CCC(=O)[*:2])N[*:1]; Palmitoyl = CCCCCCCCCCCCCCCC(=O)*; AEEA = NCCOCCOCC(=O)O; Aib = CC(C)(N)C(=O)O

B1: SEQ ID NO: 80 (peptide)
peptide: IVLSLDVPTKLK([AEEA-AEEA-γGlu-C20 diacid])QILLEQERQKKQREQAETN[Aib]QILAQV-NH2
modifications: N-terminus assumed
SMILES: CC[C@H](C)[C@H](N)C(=O)N[C@H](C(=O)N[C@@H](CC(C)C)C(=O)N[C@@H](CO)C(=O)N[C@@H](CC(C)C)C(=O)N[C@@H](CC(=O)O)C(=O)N[C@H](C(=O)N1CCC[C@H]1C(=O)N[C@H](C(=O)N[C@@H](CCCCN)C(=O)N[C@@H](CC(C)C)C(=O)N[C@@H](CCCCNC(=O)COCCOCCNC(=O)COCCOCCNC(=O)CC[C@H](NC(=O)CCCCCCCCCCCCCCCCCCC(=O)O)C(=O)O)C(=O)N[C@@H](CCC(N)=O)C(=O)N[C@H](C(=O)N[C@@H](CC(C)C)C(=O)N[C@@H](CC(C)C)C(=O)N[C@@H](CCC(=O)O)C(=O)N[C@@H](CCC(N)=O)C(=O)N[C@@H](CCC(=O)O)C(=O)N[C@@H](CCCNC(=N)N)C(=O)N[C@@H](CCC(N)=O)C(=O)N[C@@H](CCCCN)C(=O)N[C@@H](CCCCN)C(=O)N[C@@H](CCC(N)=O)C(=O)N[C@@H](CCCNC(=N)N)C(=O)N[C@@H](CCC(=O)O)C(=O)N[C@@H](CCC(N)=O)C(=O)N[C@@H](C)C(=O)N[C@@H](CCC(=O)O)C(=O)N[C@H](C(=O)N[C@@H](CC(N)=O)C(=O)NC(C)(C)C(=O)N[C@@H](CCC(N)=O)C(=O)N[C@H](C(=O)N[C@@H](CC(C)C)C(=O)N[C@@H](C)C(=O)N[C@@H](CCC(N)=O)C(=O)N[C@H](C(N)=O)C(C)C)[C@@H](C)CC)[C@@H](C)O)[C@@H](C)CC)[C@@H](C)O)C(C)C)C(C)C
B2: SEQ ID NO: 76 (peptide)
peptide: IVLSLDVPIGLK([AEEA-AEEA-γGlu-C18 diacid])QILLEQERQKKQRQQAETN[Aib]QILAQV-NH2
modifications: N-terminus assumed
SMILES: CC[C@H](C)[C@H](N)C(=O)N[C@H](C(=O)N[C@@H](CC(C)C)C(=O)N[C@@H](CO)C(=O)N[C@@H](CC(C)C)C(=O)N[C@@H](CC(=O)O)C(=O)N[C@H](C(=O)N1CCC[C@H]1C(=O)N[C@H](C(=O)NCC(=O)N[C@@H](CC(C)C)C(=O)N[C@@H](CCCCNC(=O)COCCOCCNC(=O)COCCOCCNC(=O)CC[C@H](NC(=O)CCCCCCCCCCCCCCCCC(=O)O)C(=O)O)C(=O)N[C@@H](CCC(N)=O)C(=O)N[C@H](C(=O)N[C@@H](CC(C)C)C(=O)N[C@@H](CC(C)C)C(=O)N[C@@H](CCC(=O)O)C(=O)N[C@@H](CCC(N)=O)C(=O)N[C@@H](CCC(=O)O)C(=O)N[C@@H](CCCNC(=N)N)C(=O)N[C@@H](CCC(N)=O)C(=O)N[C@@H](CCCCN)C(=O)N[C@@H](CCCCN)C(=O)N[C@@H](CCC(N)=O)C(=O)N[C@@H](CCCNC(=N)N)C(=O)N[C@@H](CCC(N)=O)C(=O)N[C@@H](CCC(N)=O)C(=O)N[C@@H](C)C(=O)N[C@@H](CCC(=O)O)C(=O)N[C@H](C(=O)N[C@@H](CC(N)=O)C(=O)NC(C)(C)C(=O)N[C@@H](CCC(N)=O)C(=O)N[C@H](C(=O)N[C@@H](CC(C)C)C(=O)N[C@@H](C)C(=O)N[C@@H](CCC(N)=O)C(=O)N[C@H](C(N)=O)C(C)C)[C@@H](C)CC)[C@@H](C)O)[C@@H](C)CC)[C@@H](C)CC)C(C)C)C(C)C
B3: SEQ ID NO: 78 (peptide)
peptide: IVLSLDVPTKLK([AEEA-AEEA-γGlu-C18 diacid])QILLEQERQKKQREQAETN[Aib]QILAQV-NH2
modifications: N-terminus assumed
SMILES: CC[C@H](C)[C@H](N)C(=O)N[C@H](C(=O)N[C@@H](CC(C)C)C(=O)N[C@@H](CO)C(=O)N[C@@H](CC(C)C)C(=O)N[C@@H](CC(=O)O)C(=O)N[C@H](C(=O)N1CCC[C@H]1C(=O)N[C@H](C(=O)N[C@@H](CCCCN)C(=O)N[C@@H](CC(C)C)C(=O)N[C@@H](CCCCNC(=O)COCCOCCNC(=O)COCCOCCNC(=O)CC[C@H](NC(=O)CCCCCCCCCCCCCCCCC(=O)O)C(=O)O)C(=O)N[C@@H](CCC(N)=O)C(=O)N[C@H](C(=O)N[C@@H](CC(C)C)C(=O)N[C@@H](CC(C)C)C(=O)N[C@@H](CCC(=O)O)C(=O)N[C@@H](CCC(N)=O)C(=O)N[C@@H](CCC(=O)O)C(=O)N[C@@H](CCCNC(=N)N)C(=O)N[C@@H](CCC(N)=O)C(=O)N[C@@H](CCCCN)C(=O)N[C@@H](CCCCN)C(=O)N[C@@H](CCC(N)=O)C(=O)N[C@@H](CCCNC(=N)N)C(=O)N[C@@H](CCC(=O)O)C(=O)N[C@@H](CCC(N)=O)C(=O)N[C@@H](C)C(=O)N[C@@H](CCC(=O)O)C(=O)N[C@H](C(=O)N[C@@H](CC(N)=O)C(=O)NC(C)(C)C(=O)N[C@@H](CCC(N)=O)C(=O)N[C@H](C(=O)N[C@@H](CC(C)C)C(=O)N[C@@H](C)C(=O)N[C@@H](CCC(N)=O)C(=O)N[C@H](C(N)=O)C(C)C)[C@@H](C)CC)[C@@H](C)O)[C@@H](C)CC)[C@@H](C)O)C(C)C)C(C)C
B4: SEQ ID NO: 79 (peptide)
peptide: IVLSLDVPIKLK([AEEA-AEEA-γGlu-C18 diacid])QILLEQEKQK[Aib]QREQAETNKQILAQV-NH2
modifications: N-terminus assumed
SMILES: CC[C@H](C)[C@H](N)C(=O)N[C@H](C(=O)N[C@@H](CC(C)C)C(=O)N[C@@H](CO)C(=O)N[C@@H](CC(C)C)C(=O)N[C@@H](CC(=O)O)C(=O)N[C@H](C(=O)N1CCC[C@H]1C(=O)N[C@H](C(=O)N[C@@H](CCCCN)C(=O)N[C@@H](CC(C)C)C(=O)N[C@@H](CCCCNC(=O)COCCOCCNC(=O)COCCOCCNC(=O)CC[C@H](NC(=O)CCCCCCCCCCCCCCCCC(=O)O)C(=O)O)C(=O)N[C@@H](CCC(N)=O)C(=O)N[C@H](C(=O)N[C@@H](CC(C)C)C(=O)N[C@@H](CC(C)C)C(=O)N[C@@H](CCC(=O)O)C(=O)N[C@@H](CCC(N)=O)C(=O)N[C@@H](CCC(=O)O)C(=O)N[C@@H](CCCCN)C(=O)N[C@@H](CCC(N)=O)C(=O)N[C@@H](CCCCN)C(=O)NC(C)(C)C(=O)N[C@@H](CCC(N)=O)C(=O)N[C@@H](CCCNC(=N)N)C(=O)N[C@@H](CCC(=O)O)C(=O)N[C@@H](CCC(N)=O)C(=O)N[C@@H](C)C(=O)N[C@@H](CCC(=O)O)C(=O)N[C@H](C(=O)N[C@@H](CC(N)=O)C(=O)N[C@@H](CCCCN)C(=O)N[C@@H](CCC(N)=O)C(=O)N[C@H](C(=O)N[C@@H](CC(C)C)C(=O)N[C@@H](C)C(=O)N[C@@H](CCC(N)=O)C(=O)N[C@H](C(N)=O)C(C)C)[C@@H](C)CC)[C@@H](C)O)[C@@H](C)CC)[C@@H](C)CC)C(C)C)C(C)C
B5: SEQ ID NO: 5 (peptide)
peptide: IVLSLDVPIGLK([γGlu-Palmitoyl])QKLLKQQRQRKERQQAETNARILARV-NH2
modifications: N-terminus assumed
SMILES: CCCCCCCCCCCCCCCC(=O)N[C@@H](CCC(=O)NCCCC[C@H](NC(=O)[C@H](CC(C)C)NC(=O)CNC(=O)[C@@H](NC(=O)[C@@H]1CCCN1C(=O)[C@@H](NC(=O)[C@H](CC(=O)O)NC(=O)[C@H](CC(C)C)NC(=O)[C@H](CO)NC(=O)[C@H](CC(C)C)NC(=O)[C@@H](NC(=O)[C@@H](N)[C@@H](C)CC)C(C)C)C(C)C)[C@@H](C)CC)C(=O)N[C@@H](CCC(N)=O)C(=O)N[C@@H](CCCCN)C(=O)N[C@@H](CC(C)C)C(=O)N[C@@H](CC(C)C)C(=O)N[C@@H](CCCCN)C(=O)N[C@@H](CCC(N)=O)C(=O)N[C@@H](CCC(N)=O)C(=O)N[C@@H](CCCNC(=N)N)C(=O)N[C@@H](CCC(N)=O)C(=O)N[C@@H](CCCNC(=N)N)C(=O)N[C@@H](CCCCN)C(=O)N[C@@H](CCC(=O)O)C(=O)N[C@@H](CCCNC(=N)N)C(=O)N[C@@H](CCC(N)=O)C(=O)N[C@@H](CCC(N)=O)C(=O)N[C@@H](C)C(=O)N[C@@H](CCC(=O)O)C(=O)N[C@H](C(=O)N[C@@H](CC(N)=O)C(=O)N[C@@H](C)C(=O)N[C@@H](CCCNC(=N)N)C(=O)N[C@H](C(=O)N[C@@H](CC(C)C)C(=O)N[C@@H](C)C(=O)N[C@@H](CCCNC(=N)N)C(=O)N[C@H](C(N)=O)C(C)C)[C@@H](C)CC)[C@@H](C)O)C(=O)O
B6: SEQ ID NO: 77 (peptide)
peptide: IVLSLDVPIKLK([AEEA-AEEA-γGlu-C18 diacid])QILLKQERQKKQRQKAETNKQILAQV-NH2
modifications: N-terminus assumed
SMILES: CC[C@H](C)[C@H](N)C(=O)N[C@H](C(=O)N[C@@H](CC(C)C)C(=O)N[C@@H](CO)C(=O)N[C@@H](CC(C)C)C(=O)N[C@@H](CC(=O)O)C(=O)N[C@H](C(=O)N1CCC[C@H]1C(=O)N[C@H](C(=O)N[C@@H](CCCCN)C(=O)N[C@@H](CC(C)C)C(=O)N[C@@H](CCCCNC(=O)COCCOCCNC(=O)COCCOCCNC(=O)CC[C@H](NC(=O)CCCCCCCCCCCCCCCCC(=O)O)C(=O)O)C(=O)N[C@@H](CCC(N)=O)C(=O)N[C@H](C(=O)N[C@@H](CC(C)C)C(=O)N[C@@H](CC(C)C)C(=O)N[C@@H](CCCCN)C(=O)N[C@@H](CCC(N)=O)C(=O)N[C@@H](CCC(=O)O)C(=O)N[C@@H](CCCNC(=N)N)C(=O)N[C@@H](CCC(N)=O)C(=O)N[C@@H](CCCCN)C(=O)N[C@@H](CCCCN)C(=O)N[C@@H](CCC(N)=O)C(=O)N[C@@H](CCCNC(=N)N)C(=O)N[C@@H](CCC(N)=O)C(=O)N[C@@H](CCCCN)C(=O)N[C@@H](C)C(=O)N[C@@H](CCC(=O)O)C(=O)N[C@H](C(=O)N[C@@H](CC(N)=O)C(=O)N[C@@H](CCCCN)C(=O)N[C@@H](CCC(N)=O)C(=O)N[C@H](C(=O)N[C@@H](CC(C)C)C(=O)N[C@@H](C)C(=O)N[C@@H](CCC(N)=O)C(=O)N[C@H](C(N)=O)C(C)C)[C@@H](C)CC)[C@@H](C)O)[C@@H](C)CC)[C@@H](C)CC)C(C)C)C(C)C

Target: human corticotropin-releasing factor 2α (CRF2 α receptor) (human), Q13324
Sequence (Q13324 20-411): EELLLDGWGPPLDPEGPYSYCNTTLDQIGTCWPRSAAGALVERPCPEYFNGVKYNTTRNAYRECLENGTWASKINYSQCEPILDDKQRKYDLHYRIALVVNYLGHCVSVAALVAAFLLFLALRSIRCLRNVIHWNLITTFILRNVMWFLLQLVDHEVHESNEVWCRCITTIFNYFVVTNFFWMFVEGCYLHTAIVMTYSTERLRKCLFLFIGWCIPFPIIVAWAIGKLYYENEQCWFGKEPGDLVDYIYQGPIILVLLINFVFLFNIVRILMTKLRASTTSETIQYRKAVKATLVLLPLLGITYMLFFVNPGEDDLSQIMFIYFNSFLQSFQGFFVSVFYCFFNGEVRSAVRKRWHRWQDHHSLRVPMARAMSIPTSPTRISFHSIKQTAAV
Assay: cell-based or functional assay

EC50 [nM], 0% HSA [nM] | EC50 [nM], 0.1% HSA [nM] | Binder
0.9 | 92.5 | B1
13.4 | – | B2
10.6 | – | B3
0.46 | – | B4
0.04 | – | B5
0.33 | – | B6
